Measurements from patent publication US20250002564A1.

Key:
mouse FcRn (mouse) [1] = target: mouse FcRn (mouse) (UniProt Q61559)
mouse FcγRI (mouse) = mouse FcγRI (mouse) (UniProt P26151)
mouse FcRn (mouse) [2] = target: mouse FcRn (mouse) (UniProt Q61559); test: pH 5.6

mouse FcγRI (mouse), sequence (P26151 25-297 limits assumed): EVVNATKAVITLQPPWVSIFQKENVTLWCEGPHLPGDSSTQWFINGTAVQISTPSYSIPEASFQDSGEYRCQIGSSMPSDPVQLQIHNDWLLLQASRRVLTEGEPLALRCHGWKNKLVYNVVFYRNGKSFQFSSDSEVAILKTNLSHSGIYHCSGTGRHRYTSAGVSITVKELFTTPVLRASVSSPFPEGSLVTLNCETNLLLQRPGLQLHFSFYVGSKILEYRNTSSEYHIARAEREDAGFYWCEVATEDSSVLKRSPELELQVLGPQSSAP

Row | kon (mouse FcRn (mouse) [1]) [M⁻¹ s⁻¹] | Kd (mouse FcγRI (mouse)) [pM] | koff (mouse FcγRI (mouse)) [s⁻¹] | kon (mouse FcγRI (mouse)) [M⁻¹ s⁻¹] | Kd (mouse FcRn (mouse) [2]) [pM] | koff (mouse FcRn (mouse) [2]) [s⁻¹] | Substance
1 | 682000 | < 1 | < 1e-07 | 939000 | < 1 | < 1e-07 | mouse surrogate Multabody (HD37 IgG2a scFab and scFc on mouse apoferritin light chain), wild-type Fc
2 | 2.4e+06 | – | – | – | < 1 | < 1e-07 | mouse surrogate Multabody with LALAP Fc
